One molecule from US20080293626A1 (Johns Hopkins, published 2008) can be followed below.

In this assay the target is PEDF receptor (unidentified cell surface receptor on bovine retinal capillary endothelial cells). Description: cell-based or functional assay.

With VLLSPLSVATALSALSLGAEQRTESIIHRALYYDLISSPDIHGT [PEDF 44 AA peptide (residues 78-121 of human PEDF)], the “inhibition of VEGF stimulated endothelial cell migration (BRCEC microchemotaxis chamber), IC50” value amounted to 3 nM.
